By Kd is commonly meant the concentration at which binding is half-saturated. High values mean weaker binding, low ones tighter binding.

These results are taken from PMC13354579 (EMBO Reports, 2026).

For the test, the target named is T1, RAD23A^UBL (human, UniProt P54725 1-84).
T1 construct: RAD23A, human, N-terminal ubiquitin-like domain, residues 1-84; The limits 1-84 are stated for the crystallised construct; also called UBL domain of RAD23A; RAD23A (1–84); source: E. coli (Rosetta2(DE3) for crystallisation), purified via GST tag and SEC
T1 sequence (looked up): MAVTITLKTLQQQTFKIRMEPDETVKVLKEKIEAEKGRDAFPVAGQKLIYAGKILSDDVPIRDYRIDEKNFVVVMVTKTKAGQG
The experiment in a line: ITC; MicroCal PEAQ-ITC, 25 °C, 50 mM Tris-HCl pH 7.5, 150 mM NaCl, 250 µM TCEP; DUB in the syringe titrated into K48-linked polyUb in the cell, in other experiments the scarcest species in the cell; n = 2, mean ± SD. The note with it: both partners purified. A general note: ITC needs no label: the signal is the heat of the interaction.

B1: MINDY3^EF-hand (domain or fragment, human, UniProt Q9H8M7 297-370, looked up)
chain: ALVAPEAPSEQARRVFQTYDPEDNGFIPDSLLEDVMKALDLVSDPEYINLMKNKLDPEGLGIILLGPFLQEFFP
notes: MINDY3, human, EF-hand domain, residues 297-370; The limits 297-370 are stated for the crystallised construct; also called EF-hand domain of MINDY3; MINDY3 (297–370); source: E. coli (Rosetta2(DE3) for crystallisation), purified via GST tag and SEC
The molecule B1 displayed a Kd of 3.5 µM.
